# From paper PMC1905944
# Where “and” joins values, the source holds several entries; their conditions need not be identical. Equal values may be shown once.
# Tests used:
# [1] = target: full-length HIV-1 WT integrase (HIV-1); test: cross-linking; IN (5 pmol, 0.5 uM) with the 5'-radiolabelled 38-bp PalA/PalB duplex (1 pmol, 0.1 uM; HIV-1 LTR-LTR junction) and AHDAP 300 uM, 0.05% NP40, 10 mM DTT, 20 mM HEPES pH 7.5, 37 C in the dark, 0 to 60 min; SDS-PAGE and autoradiography; IN oligomers seen bound to DNA
# [2] = target: full-length HIV-1 WT integrase (HIV-1); test: cross-linking + SEC; covalent IN oligomers made by chemical cross-linking and separated by size-exclusion chromatography, as previously described [10]; dimers and tetramers recovered
substance,measurement,setting,value
full-length HIV-1 WT integrase (enzyme),stoichiometry N,[1],2 and 4
same,stoichiometry N,[2],2 and 4
